Changes are numbered by the printed parent chain.
T1: CD2BP2225-341 (yeast two-hybrid clone) (human, UniProt O95400 225-341)
T1 construct: Yeast two-hybrid prey in pJG4-5; vector fusion part not described
T1 sequence: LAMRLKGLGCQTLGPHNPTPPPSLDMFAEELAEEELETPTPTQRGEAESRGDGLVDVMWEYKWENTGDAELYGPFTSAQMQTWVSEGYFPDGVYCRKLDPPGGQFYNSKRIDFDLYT

T2: CD2BP2129-287 (human, UniProt O95400 129-287)
T2 construct: Yeast two-hybrid prey; vector fusion part not described
T2 sequence: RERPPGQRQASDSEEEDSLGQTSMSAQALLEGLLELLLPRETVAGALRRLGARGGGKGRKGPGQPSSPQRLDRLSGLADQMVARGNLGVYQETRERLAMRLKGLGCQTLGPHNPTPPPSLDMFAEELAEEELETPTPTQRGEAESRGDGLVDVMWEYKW

T3: CD2BP2129-254 (human, UniProt O95400 129-254)
T3 construct: Yeast two-hybrid prey; vector fusion part not described
T3 sequence: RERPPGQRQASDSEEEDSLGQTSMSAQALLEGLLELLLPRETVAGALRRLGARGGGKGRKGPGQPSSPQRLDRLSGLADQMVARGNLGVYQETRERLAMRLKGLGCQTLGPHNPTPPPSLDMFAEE

T4: CD2 binding protein 2 (CD2BP2) (human, UniProt O95400 1-341, limits assumed)
T4 construct: CD2BP2 as used in the yeast two-hybrid tests against CD2 derivatives (vector pJG4-5)
T4 sequence: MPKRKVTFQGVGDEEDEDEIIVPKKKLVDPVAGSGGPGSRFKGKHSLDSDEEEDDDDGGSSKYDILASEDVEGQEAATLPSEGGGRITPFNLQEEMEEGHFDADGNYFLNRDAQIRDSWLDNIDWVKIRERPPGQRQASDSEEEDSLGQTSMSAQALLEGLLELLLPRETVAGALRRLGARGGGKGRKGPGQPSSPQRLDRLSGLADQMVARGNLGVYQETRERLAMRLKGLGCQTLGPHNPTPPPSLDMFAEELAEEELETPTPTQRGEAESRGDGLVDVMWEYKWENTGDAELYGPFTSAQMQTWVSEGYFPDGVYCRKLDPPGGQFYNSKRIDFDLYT

B1: CD2 cytoplasmic region (CD2221-327) (receptor, human, UniProt P06729 245-351, looked up)
chain: NDEELETRAHRVATEERGRKPHQIPASTPQNPATSQHPPPPPGHRSQAPSHRPPPPGHRVQHQPQKRPPAPSGTQVHQQKGPPLPRPRVQPKPPHGAAENSLSPSSN
notes: range 221-327; Yeast two-hybrid bait expressed from vector pEG202; also called CD2 cytoplasmic tail; human CD2 cytoplasmic segment amino acids 221-327
B2: CD2BP2256-341Δ297-313 (other)
chain: AEEELETPTPTQRGEAESRGDGLVDVMWEYKWENTGDAELYPDGVYCRKLDPPGGQFYNSKRIDFDLYT
notes: Yeast two-hybrid prey; vector fusion part not described; also called deletion clone lacking those 17 residues
B3: CD2BP2256-341 (yeast two-hybrid clone) (other)
chain: AEEELETPTPTQRGEAESRGDGLVDVMWEYKWENTGDAELYGPFTSAQMQTWVSEGYFPDGVYCRKLDPPGGQFYNSKRIDFDLYT
notes: Yeast two-hybrid prey in pJG4-5; vector fusion part not described; also called shortest functional clone
B4: CD2BP2 F313A (other)
chain: B3 chain with F58A
notes: Yeast two-hybrid prey
B5: CD2BP2 G311A (other)
chain: B3 chain with G56A
notes: Yeast two-hybrid prey
B6: CD2BP2 Y312A (other)
chain: B3 chain with Y57A
notes: Yeast two-hybrid prey
B7: CD2BP2 W307A (other)
chain: B3 chain with W52A
notes: Yeast two-hybrid prey
B8: CD2221-271 (receptor, human, UniProt P06729 245-295, looked up)
chain: NDEELETRAHRVATEERGRKPHQIPASTPQNPATSQHPPPPPGHRSQAPSH
notes: range 221-271; CD2 cytoplasmic tail truncation mutant for yeast two-hybrid analysis; vector fusion part not described
B9: FLAG-CD2BP2 (other)
chain: DYKDDDDKMPKRKVTFQGVGDEEDEDEIIVPKKKLVDPVAGSGGPGSRFKGKHSLDSDEEEDDDDGGSSKYDILASEDVEGQEAATLPSEGGGRITPFNLQEEMEEGHFDADGNYFLNRDAQIRDSWLDNIDWVKIRERPPGQRQASDSEEEDSLGQTSMSAQALLEGLLELLLPRETVAGALRRLGARGGGKGRKGPGQPSSPQRLDRLSGLADQMVARGNLGVYQETRERLAMRLKGLGCQTLGPHNPTPPPSLDMFAEELAEEELETPTPTQRGEAESRGDGLVDVMWEYKWENTGDAELYGPFTSAQMQTWVSEGYFPDGVYCRKLDPPGGQFYNSKRIDFDLYT
notes: Expressed in COS7 (pcDNA1.1) and Jurkat J77 (pcDNA3.1) cells and tested from cell lysates; also called full length FLAG-CD2BP2 construct
B10: CD2BP2256-332 (other)
chain: AEEELETPTPTQRGEAESRGDGLVDVMWEYKWENTGDAELYGPFTSAQMQTWVSEGYFPDGVYCRKLDPPGGQFYNS
notes: Yeast two-hybrid prey; vector fusion part not described; also called nine-residue truncation

Assays:
[1] = biological target: T1, CD2BP2225-341 (yeast two-hybrid clone); experiment: yeast two-hybrid
Text: (§1) The yeast hybrid system interaction trap was used as described (Finley and Brent, Interaction Trap Cloning with Yeast (Oxford Univ. Press), NY (1995)). In brief, as bait, a human CD2 cDNA encoding the cytoplasmic segment amino acids 221-327 was transferred into the pEG202 vector. cDNAs from an activated human T cell cDNA library, CD2 binding protein 2 (CD2BP2), or mutant cDNA variants of CD2BP2 were introduced into the pJG4-5 vector between EcoRI and Xho1 restriction sites. Mutations were created by a previously described method (Higuchi et al., Nucleic Acids Res. 16:7351-7367 (1988)), and were confirmed by DNA sequencing. Both of the yeast shuttle vectors were introduced into the yeast strain EGY48, were plated onto selection plates containing glucose, and were incubated at 30° C. After 48 hours greater than 100 colonies were mixed, were transferred onto a plate containing galactose/raffinose and 5-bromo-4-chloro-3-indolyl-D-galactoside, and were incubated for 48 hours at 30° C. followed by 5 days at 8° C. The strength of the interaction was scored based on the time point when the blue color appeared in comparison with a negative control: ++++, <6 hours; +++, 12 hours: ++, <24 hours; +, <48 hours; ±, <72 hours; and −, >72 hours. CD2 mutations were generated and analyzed in a similar manner.

CD2BP2129-287 = biological target: T2, CD2BP2129-287; experiment: yeast two-hybrid
Text: as §1

CD2BP2129-254 = biological target: T3, CD2BP2129-254; experiment: yeast two-hybrid
Text: as §1

[2] = biological target: B1; experiment: yeast two-hybrid
Text: as §1

[3] = biological target: T4, CD2 binding protein 2 (CD2BP2); experiment: yeast two-hybrid
Text: as §1

human CD4 = biological target: T5, human CD4 (human, UniProt P01730 26-458); experiment: co-immunoprecipitation from cotransfected COS7 cells, anti-FLAG Western blot
T5 construct: whole, on cells; Control in the COS7 co-immunoprecipitation; tested in cell lysate
Method: COS7 cells were transfected with FLAG-CD2BP2 cDNA (lane 1), with FLAG-CD2BP2 and a human CD2 cDNA (lanes 2 and 3), or with FLAG-CD2BP2 and a human CD4 cDNA (lanes 4 and 5), then were lysed and immunoprecipitated with the anti-FLAG mAb M2 (lanes 3 and 5), with anti-CD2 mAb (anti-T11₁)(lanes 1 and 2), or with anti-CD4 mAb (19Thy5D7) (lane 4). Subsequently, the amount of FLAG-CD2BP2 in the immunoprecipitates was assayed by anti-FLAG mAb M2 Western blotting.
To determine whether CD2BP2 associates specifically with CD2, COS7 cells were cotransfected with FLAG-CD2BP2 and CD2 cDNA, or, as a control, CD4 cDNA. Subsequently, the CD2 protein was immunoprecipitated with anti-CD2 mAb and association with CD2BP2 examined by Western blotting with anti-FLAG mAb. […] The amount of CD2BP2 associated with CD2, however, is only a fraction of the CD2BP2 protein expressed in the COS7 cells.
As the vectors for transfection, pcDNA1.1 and pcDNA3.1 (Invitrogen) were used with COS7 and with Jurkat cells, respectively. For expression of CD2 and CD4 in COS7 cells, a pCDM8 plasmid containing each was used (Sakiharna et al, Proc. Natl. Acad. Sci. USA 92:6444-6448 (1995); Li et al., J. Mol. Biol. 263:209-226 (1996)). […]

| Binder | binding result [2] | further results |
| --- | --- | --- |
| B1 | – | binding result [1]: binds; binding result (CD2BP2129-287): no binding; binding result (CD2BP2129-254): no binding |
| B2 | no binding | – |
| B3 | binds | – |
| B4 | no binding | – |
| B5 | no binding | – |
| B6 | no binding | – |
| B7 | no binding | – |
| B8 | – | binding result [3]: no binding |
| B9 | – | binding result (human CD4): no binding |
| B10 | no binding | – |

— patent publication US20020127657A1 (Dana-Farber, published 2002)
